Source: patent US10357554B2, “AMA-1 epitopes, antibodies, compositions, and methods of making and using the same” (THE UNITED STATES OF AMERICA, AS REPRESENTED BY THE …, dated 2019)
Residue numbers refer to the chain shown, from its start. Where two headings read alike, the source gives them in different places.

B1: Monoclonal 1B10 (antibody, V domains shown)
VH: EVQLQESGPGLVQPSQSLSITCTVSGFSLNMYGVHWVRQSPGKGLEWLGVIWSGGTTDYNAAFISRLSINRDNSKSQVFFKMNSLQTDDTAIYYCVRNNGYYVDAMDYWGQGTSVAVSS
VL: DVVMTQTPLSLPVSLGDQASISCRSSQSLVHSNGNTYLHWYLQRPGQSPKLLIYKVSNRFSGVPDRFSGSGSGTDFTLKISRVEAEDLGVYFCSQSTLGPTFGGGTKLEMQR
B2: Monoclonal 4E11 (antibody, V domains shown)
VH: EVQLQESGPGLVRPSQSLSITCTVSGFSLPLYGVHWVRQSPGKGLEWLGVIWSGGSTDYNAAFVSRLSISKDNSKSQVFFEMNSLQADDTATYYCARNNGYYVDAMDYWGQGTSVTVSS
VL: B1 VL with R44K, Y54F, K79Q, V90F, L98H, G99V, M110I, Q111K
B3: Monoclonal 4E8 (antibody, V domains shown)
VH: B2 VH with R13Q, G26D, P30I, L31M, V64I, E81K, T92I
VL: B1 VL with S32N, R44K, S61F, L98H, G99V, M110I, Q111K
B4: Monoclonal 1E10 (antibody, V domains shown)
VH: EVQLQESGAELAKPGASVKLSCKASGYTFTNYLMHWIKQRPGQGLEWIGYINHGSGYTNYNQKFIDRATLTADKSSSTAYMQLRSLTYEDSAVYYCVHGYFDVWGTGTTVTVSS
VL: QIVLTQSPTIMSASPGEKVTMTCSASSSVTYMHWYQQKPGTSPKRWIYDTSKLASGVPARFSGSGSGTSYSLTISSMEAEDAATYYCHQRSSYPTFGGGTKLEIKR

Key:
[1] = molecular target: AMA-1 on P. falciparum 3D7 strain parasites (Plasmodium falciparum)
[2] = molecular target: AMA-1 on P. falciparum 3D7 strain parasites (Plasmodium falciparum); remark: listed apart in the source
[3] = molecular target: T1, AMA-1 on P. falciparum 3D7 strain parasites (Plasmodium falciparum); assay: cell-based or functional assay
T1 chain: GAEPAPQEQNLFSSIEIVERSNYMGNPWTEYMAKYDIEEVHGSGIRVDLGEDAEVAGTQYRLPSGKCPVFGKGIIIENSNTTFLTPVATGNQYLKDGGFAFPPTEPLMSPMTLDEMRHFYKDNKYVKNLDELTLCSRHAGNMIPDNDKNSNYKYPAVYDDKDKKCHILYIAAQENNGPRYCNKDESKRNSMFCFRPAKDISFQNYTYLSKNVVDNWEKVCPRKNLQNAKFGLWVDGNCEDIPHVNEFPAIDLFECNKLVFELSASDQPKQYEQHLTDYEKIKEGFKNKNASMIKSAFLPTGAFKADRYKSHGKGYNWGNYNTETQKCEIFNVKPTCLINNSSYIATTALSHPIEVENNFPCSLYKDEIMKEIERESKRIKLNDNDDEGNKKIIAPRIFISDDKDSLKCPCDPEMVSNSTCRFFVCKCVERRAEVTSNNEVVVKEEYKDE

[4] = molecular target: 7 AMA-1 allelic proteins; assay: dot blot against 7 AMA-1 allelic proteins
[5] = molecular target: T1, AMA-1 on P. falciparum 3D7 strain …; assay: cell-based or functional assay

| Molecule | GIA at 1 mg/ml against the 3D7 target strain: Inhibition [1] [%] | IC30 concentration in GIA against 3D7 target parasites [2] [µg/mL] | IC30 concentration in GIA against 3D7 target parasites [3] [µg/mL] | Strain reactivity (of 7 AMA-1 allelic proteins) [4] | GIA at 1 mg/ml against the 3D7 target strain: Inhibition [5] [%] |
| --- | --- | --- | --- | --- | --- |
| rat mAb 4G2dc1 (antibody) | 22 | 1800 | – | – | – |
| B1 | – | – | 150 | 5 | 65 |
| B2 | – | – | 220 | 5 | 62 |
| B3 | – | – | 150 | 6 | 67 |
| B4 | – | – | 1900 | 7 | 20 |
